Measured values published in patent publication US20240336656A1 (Bicycle, published 2024).
Starred links: 1 amine or outer side, 2 acyl side, 3 side chain; linkers in the order of their positions; H or OH if unused. Positions of bridges follow the written chain, without caps; N, C: chain ends. Non-standard residues stand in square brackets, D forms with d. Chains are numbered I, II in the order given. No end group written: not given here. PYA = 4-pentynoic acid on Lys NZ, clicked (triazole) to linker azide; TATA = O=C(CC[*:1])N1CN(C(=O)CC[*:2])CN(C(=O)CC[*:3])C1; 1Nal = N[C@@H](Cc1cccc2ccccc12)C(=O)O; Hyp = O=C(O)[C@@H]1C[C@@H](O)CN1; hArg = N=C(N)NCCCC[C@H](N)C(=O)O; tBuAla = CC(C)(C)C[C@H](N)C(=O)O; Nle = CCCC[C@H](N)C(=O)O

Tests used:
CD137 (TNFRSF9) on cells [1] = molecular target: T1, CD137 (TNFRSF9) on cells (human, UniProt Q07011 24-255); assay: cell-based or functional assay
CD137 (TNFRSF9) on cells [2] = molecular target: T1, CD137 (TNFRSF9) on cells; assay: cell-based or functional assay; remark: listed apart in the source

T1 sequence (Q07011 24-255): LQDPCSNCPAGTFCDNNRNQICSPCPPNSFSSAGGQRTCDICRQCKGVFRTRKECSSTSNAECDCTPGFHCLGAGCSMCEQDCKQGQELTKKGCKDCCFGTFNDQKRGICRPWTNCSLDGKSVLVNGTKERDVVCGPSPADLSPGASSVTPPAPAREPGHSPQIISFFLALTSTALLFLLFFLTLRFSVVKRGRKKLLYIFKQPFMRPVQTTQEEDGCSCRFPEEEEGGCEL

- EC50 (nM) of fold induction over background, CD137 reporter assay, coculture with CT26#7 (mouse) (CD137 (TNFRSF9) on cells [1]): 0.14 nM
- EC50 (nM) of fold induction over background, CD137 reporter assay, coculture with HT1376 (human) (CD137 (TNFRSF9) on cells [1]): 0.52 nM
- EC50 (nM) of fold induction over background, CD137 reporter assay, coculture with MC38#13 (mouse) (CD137 (TNFRSF9) on cells [1]): 0.31 nM
- EC50 (nM) of fold induction over background, CD137 reporter assay, coculture with MDA-MB-468 (human) (CD137 (TNFRSF9) on cells [1]): 0.23 nM
- EC50 (nM) of fold induction over background, CD137 reporter assay, coculture with NCI-H292 (human) (CD137 (TNFRSF9) on cells [1]): 0.28 nM
- EC50 (nM) of fold induction over background, CD137 reporter assay, coculture with NCI-H322 (human) (CD137 (TNFRSF9) on cells [1]): 0.33 nM
- EC50 (nM) of fold induction over background, CD137 reporter assay, coculture with T47D (human) (CD137 (TNFRSF9) on cells [1]): 0.42 nM
- EC50 of IFNγ secretion, human PBMC co-culture with 4T1-D02 (mouse) (CD137 (TNFRSF9) on cells [2]): 0.04 nM
- EC50 of IFNγ secretion, human PBMC co-culture with H322 (human) (CD137 (TNFRSF9) on cells [2]): 0.85 nM
- EC50 of IFNγ secretion, human PBMC co-culture with MC38 # 13 (mouse) (CD137 (TNFRSF9) on cells [2]): 0.17 nM
- EC50 of IFNγ secretion, human PBMC co-culture with T-47D (human) (CD137 (TNFRSF9) on cells [2]): 0.08 nM
- EC50 of IL-2 secretion, human PBMC co-culture with 4T1-D02 (mouse) (CD137 (TNFRSF9) on cells [2]): 0.16 nM
- EC50 of IL-2 secretion, human PBMC co-culture with H322 (human) (CD137 (TNFRSF9) on cells [2]): 0.84 nM
- EC50 of IL-2 secretion, human PBMC co-culture with HT1376 (human) (CD137 (TNFRSF9) on cells [2]): 0.39 nM
- EC50 of IL-2 secretion, human PBMC co-culture with MC38 # 13 (mouse) (CD137 (TNFRSF9) on cells [2]): 0.25 nM
- EC50 of IL-2 secretion, human PBMC co-culture with T-47D (human) (CD137 (TNFRSF9) on cells [2]): 0.2 nM
B1: BCY11863 (peptide)
peptide 1: {N‑(acid-PEG3)‑N‑bis(PEG3-azide)}-CP[1Nal][dD]CM[hArg]DWSTP[Hyp]WC
peptide 2: Ac-C[tBuAla]PE[dK](PYA)PYCFADPY[Nle]CA
modifications: linker I:1-I:5-I:15, II:1-II:8-II:15 via TATA; also: heterotandem: one BCY8116 (chain 1) joined through N-(acid-PEG3)-N-bis(PEG3-azide) linker to two BCY8928 (chain 2), triazole via D-Lys(PYA)
